Measurements as given in IntAct's records for PubMed 31515488.

B1: Paraneoplastic antigen-like protein 5 (Homo sapiens), Q96PV4 (parent)
chain: MALTLLEDWCKGMDMDPRKALLIVGIPMECSEVEIQDTVKAGLQPLCAYRVLGRMFRREDNAKAVFIELADTVNYTTLPSHIPGKGGSWEVVVKPRNPDDEFLSRLNYFLKDEGRSMTDVARALGCCSLPAESLDAEVMPQVRSPPLEPPKESMWYRKLKVFSGTASPSPGEETFEDWLEQVTEIMPIWQVSEVEKRRRLLESLRGPALSIMRVLQANNDSITVEQCLDALKQIFGDKEDFRASQFRFLQTSPKIGEKVSTFLLRLEPLLQKAVHKSPLSVRSTDMIRLKHLLARVAMTPALRGKLELLDQRGCPPNFLELMKLIRDEEEWENTEAVMKNKEKPSGRGRGASGRQARAEASVSAPQATVQARSFSDSSPQTIQGGLPPLVKRRRLLGSESTRGEDHGQATYPKAENQTPGREGPQAAGEELGNEAGAGAMSHPKPWET

Variants of: B1
Conditions: with arpc4_human ARPC4, P59998

Row | Variant | effect of a mutation on the interaction
1 | R312Q | with no effect
2 | V274M | with no effect
3 | T261A | with no effect

Variants of: B1
Conditions: with zfy26_human ZFYVE26, Q68DK2
Chain of zfy26_human ZFYVE26, Q68DK2 (Q68DK2 whole entry): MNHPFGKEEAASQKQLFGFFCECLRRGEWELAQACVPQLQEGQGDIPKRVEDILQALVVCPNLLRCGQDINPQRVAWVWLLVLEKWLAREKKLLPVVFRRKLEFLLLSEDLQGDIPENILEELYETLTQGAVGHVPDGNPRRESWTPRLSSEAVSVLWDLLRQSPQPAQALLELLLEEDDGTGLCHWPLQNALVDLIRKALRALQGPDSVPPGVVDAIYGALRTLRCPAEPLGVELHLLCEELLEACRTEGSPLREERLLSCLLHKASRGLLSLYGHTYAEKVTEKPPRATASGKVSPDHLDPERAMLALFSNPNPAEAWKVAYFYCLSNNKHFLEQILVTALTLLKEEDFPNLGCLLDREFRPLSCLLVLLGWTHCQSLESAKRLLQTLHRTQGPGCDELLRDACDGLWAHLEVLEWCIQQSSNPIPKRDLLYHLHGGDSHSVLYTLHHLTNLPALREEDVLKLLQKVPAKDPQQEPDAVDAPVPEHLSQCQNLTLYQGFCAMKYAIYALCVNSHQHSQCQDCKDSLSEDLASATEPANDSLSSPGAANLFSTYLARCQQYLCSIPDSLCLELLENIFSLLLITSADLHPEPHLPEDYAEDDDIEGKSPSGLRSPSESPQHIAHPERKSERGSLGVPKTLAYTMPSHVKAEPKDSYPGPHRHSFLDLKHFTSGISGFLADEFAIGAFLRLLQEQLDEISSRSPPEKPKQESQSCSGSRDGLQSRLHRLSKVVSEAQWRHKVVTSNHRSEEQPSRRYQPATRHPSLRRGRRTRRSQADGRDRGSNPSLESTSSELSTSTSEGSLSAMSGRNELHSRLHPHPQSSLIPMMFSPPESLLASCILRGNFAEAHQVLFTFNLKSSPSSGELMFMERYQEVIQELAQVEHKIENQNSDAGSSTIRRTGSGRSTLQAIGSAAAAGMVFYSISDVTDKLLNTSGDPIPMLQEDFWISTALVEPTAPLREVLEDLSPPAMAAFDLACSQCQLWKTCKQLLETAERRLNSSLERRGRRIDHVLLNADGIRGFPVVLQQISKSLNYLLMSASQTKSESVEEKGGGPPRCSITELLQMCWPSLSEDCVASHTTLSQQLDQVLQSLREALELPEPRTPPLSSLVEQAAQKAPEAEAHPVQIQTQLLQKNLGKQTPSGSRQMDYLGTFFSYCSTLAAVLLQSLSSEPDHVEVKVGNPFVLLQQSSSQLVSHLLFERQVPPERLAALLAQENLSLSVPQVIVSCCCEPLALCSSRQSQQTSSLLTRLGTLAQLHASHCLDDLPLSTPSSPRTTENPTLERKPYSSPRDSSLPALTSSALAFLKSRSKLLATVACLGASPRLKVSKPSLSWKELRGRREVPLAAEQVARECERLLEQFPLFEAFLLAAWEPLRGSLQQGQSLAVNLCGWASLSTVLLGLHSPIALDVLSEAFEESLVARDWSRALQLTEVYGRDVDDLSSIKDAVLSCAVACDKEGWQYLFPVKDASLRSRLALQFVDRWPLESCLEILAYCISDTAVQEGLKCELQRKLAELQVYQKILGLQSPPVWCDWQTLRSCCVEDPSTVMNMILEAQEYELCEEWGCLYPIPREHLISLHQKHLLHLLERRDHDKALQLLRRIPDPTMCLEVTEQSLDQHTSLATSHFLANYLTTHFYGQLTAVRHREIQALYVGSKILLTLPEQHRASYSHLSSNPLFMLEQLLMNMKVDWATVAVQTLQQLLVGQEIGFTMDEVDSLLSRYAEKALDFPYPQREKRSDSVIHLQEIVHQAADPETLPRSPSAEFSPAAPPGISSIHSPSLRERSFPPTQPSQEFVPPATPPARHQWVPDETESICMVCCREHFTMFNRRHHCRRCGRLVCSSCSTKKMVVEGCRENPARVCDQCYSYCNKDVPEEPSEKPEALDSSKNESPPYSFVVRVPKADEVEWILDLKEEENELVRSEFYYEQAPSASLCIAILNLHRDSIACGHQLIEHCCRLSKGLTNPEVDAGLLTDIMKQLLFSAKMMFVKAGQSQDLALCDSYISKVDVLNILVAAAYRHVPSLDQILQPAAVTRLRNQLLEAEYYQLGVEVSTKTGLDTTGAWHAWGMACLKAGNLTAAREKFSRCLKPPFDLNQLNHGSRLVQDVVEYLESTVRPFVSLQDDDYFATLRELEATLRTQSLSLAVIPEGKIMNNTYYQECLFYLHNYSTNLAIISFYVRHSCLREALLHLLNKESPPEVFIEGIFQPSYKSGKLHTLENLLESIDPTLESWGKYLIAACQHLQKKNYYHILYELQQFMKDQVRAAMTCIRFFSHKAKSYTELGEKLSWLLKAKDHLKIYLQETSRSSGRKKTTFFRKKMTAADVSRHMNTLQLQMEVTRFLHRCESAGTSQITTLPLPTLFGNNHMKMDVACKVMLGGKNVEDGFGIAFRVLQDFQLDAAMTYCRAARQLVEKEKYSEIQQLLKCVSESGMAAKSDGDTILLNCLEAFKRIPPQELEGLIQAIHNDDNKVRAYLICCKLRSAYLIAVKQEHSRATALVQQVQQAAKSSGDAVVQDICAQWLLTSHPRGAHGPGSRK

Row | Variant | effect of a mutation on the interaction
4 | R312Q | with no effect
5 | V274M | with no effect
6 | T261A | with no effect

Variants of: B1
Conditions: with ccnc_human CCNC

Row | Variant | effect of a mutation on the interaction
7 | R312Q | with no effect
8 | V274M | with no effect
9 | T261A | with no effect

Variants of: B1
Conditions: with aapk1_human PRKAA1, Q13131
Chain of aapk1_human PRKAA1, Q13131 (Q13131 whole entry, looked up): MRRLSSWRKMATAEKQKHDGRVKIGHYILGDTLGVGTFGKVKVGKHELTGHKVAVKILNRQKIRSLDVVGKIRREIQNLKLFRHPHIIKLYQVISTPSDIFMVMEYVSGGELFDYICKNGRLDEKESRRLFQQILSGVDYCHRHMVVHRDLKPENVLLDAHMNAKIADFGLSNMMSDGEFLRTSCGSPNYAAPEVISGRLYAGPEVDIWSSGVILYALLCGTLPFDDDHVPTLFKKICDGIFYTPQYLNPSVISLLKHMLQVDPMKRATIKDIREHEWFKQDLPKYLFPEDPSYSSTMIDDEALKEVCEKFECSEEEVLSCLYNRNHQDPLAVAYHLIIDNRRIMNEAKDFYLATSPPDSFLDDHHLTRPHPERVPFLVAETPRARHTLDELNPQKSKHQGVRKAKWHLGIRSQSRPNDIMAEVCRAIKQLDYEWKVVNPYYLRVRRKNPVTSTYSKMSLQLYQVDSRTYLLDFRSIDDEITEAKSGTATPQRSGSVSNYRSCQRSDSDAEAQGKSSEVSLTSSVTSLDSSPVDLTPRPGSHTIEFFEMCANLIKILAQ

Row | Variant | effect of a mutation on the interaction
10 | R312Q | with no effect
11 | V274M | with no effect
12 | T261A | with no effect
